Laboratory results reported in patent US20220064286A1 (Genentech, published 2022).
Changes are numbered by the printed parent chain. Names and notes keep the numbering of the source. Each block holds one binder with its values, some of them ahead of it.

Legend:
human TIGIT protein [1] = biological target: T1, human TIGIT protein (human, UniProt Q495A1 22-141, limits assumed); test: SPR, monovalent affinity
T1 construct: Recombinant protein (Genentech) used in ELISA screening and as SPR analyte; also called TIGIT antigen
T1 sequence: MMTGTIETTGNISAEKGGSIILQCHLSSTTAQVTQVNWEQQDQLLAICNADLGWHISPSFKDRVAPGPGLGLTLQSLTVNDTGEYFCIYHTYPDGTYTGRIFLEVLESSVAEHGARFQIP

[2] = biological target: T2, cynomolgus monkey (cyno) TIGIT protein (cynomolgus monkey, UniProt A0A7N9I9V4 89-209); test: SPR, monovalent affinity
T2 sequence (A0A7N9I9V4 entry or part of it): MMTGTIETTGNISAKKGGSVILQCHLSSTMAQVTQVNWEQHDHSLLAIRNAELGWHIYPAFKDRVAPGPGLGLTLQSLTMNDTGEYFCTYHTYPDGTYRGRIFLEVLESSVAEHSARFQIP

HA-tagged TIGIT = biological target: T3, HA-tagged TIGIT (human, UniProt Q495A1 22-244); test: TR-FRET, HA-TIGIT with ST-CD226 on CHO cells; competitor CD226
T3 sequence: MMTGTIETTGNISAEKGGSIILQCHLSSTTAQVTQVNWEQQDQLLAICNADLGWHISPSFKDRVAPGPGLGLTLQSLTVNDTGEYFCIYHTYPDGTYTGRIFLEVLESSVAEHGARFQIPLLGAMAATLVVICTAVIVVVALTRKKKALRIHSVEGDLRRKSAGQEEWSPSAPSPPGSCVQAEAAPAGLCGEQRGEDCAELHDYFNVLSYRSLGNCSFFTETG
Description: To test for the ability of the clones to block the TIGIT-CD226 interaction, TR-FRET (Time-resolved Fluorescence Resonance Energy Transfer) was used. First, human SNAP-tagged (ST) CD226 with non-permeant donor and acceptor fluorophores was expressed and labeled using CHO cells. The human ST-CD226 was co-expressed with HA-tagged TIGIT, in the presence or the absence of the OMT- and SD-derived anti-TIGIT antibody clones.

[3] = biological target: T4, cynomolgus TIGIT on CHO cells (cynomolgus monkey, UniProt A0A7N9I9V4 89-312); test: FACS blocking assay: labelled PVR-Fc (blocked ligand; text: cyPVR, scheme of FIG. 4A prints hPVR.Fc) on CHO cells expressing cyno TIGIT
T4 construct: whole, on cells; also called CHO-cyTIGIT; cyTIGIT
T4 sequence (A0A7N9I9V4 entry or part of it): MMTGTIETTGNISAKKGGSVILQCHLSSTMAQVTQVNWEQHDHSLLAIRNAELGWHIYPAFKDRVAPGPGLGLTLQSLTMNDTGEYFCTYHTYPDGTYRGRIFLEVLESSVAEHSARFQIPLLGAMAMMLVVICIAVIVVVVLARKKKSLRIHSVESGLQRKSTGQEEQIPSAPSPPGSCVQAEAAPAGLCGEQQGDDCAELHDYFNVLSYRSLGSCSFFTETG
Method: (§1) These studies were further validated in CHO-TIGIT PVR blocking experiments in which TIGIT-expressing CHO cells were incubated with labeled PVR-Fc fusion protein in the presence of anti-TIGIT antibody or an human IgG1 control (FIG. 4A).

human TIGIT protein [4] = biological target: T1, human TIGIT protein; test: SPR, bivalent affinity
[5] = biological target: T2, cynomolgus monkey (cyno) TIGIT protein; test: SPR, bivalent affinity
hTIGIT mutant Y113A = biological target: T5, hTIGIT mutant Y113A (human, UniProt Q495A1); test: SPR (BIACORE), N=2
T5 sequence (TIGIT, looked up): T1 sequence with Y92A

[6] = biological target: T6, mu TIGIT (target named for 10A7 in the heads of Tables 6 and 7) (mu (mouse), UniProt P86176 29-249, limits assumed); test: FACS, CHO cells expressing TIGIT
T6 construct: Only the column head says mu TIGIT; the text describes no mouse TIGIT cells
T6 sequence (looked up): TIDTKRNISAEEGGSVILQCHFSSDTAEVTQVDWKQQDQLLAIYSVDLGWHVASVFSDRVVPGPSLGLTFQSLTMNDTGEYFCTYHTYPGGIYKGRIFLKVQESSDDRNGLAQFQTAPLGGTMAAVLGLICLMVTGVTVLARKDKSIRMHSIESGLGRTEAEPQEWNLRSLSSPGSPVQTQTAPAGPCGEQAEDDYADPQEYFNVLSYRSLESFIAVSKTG

[7] = biological target: T6, mu TIGIT (target named for 10A7 in the …); test: FACS, PVR-Fc on CHO-TIGIT cells; competitor PVR-Fc
Method: as §1

[8] = biological target: T6, mu TIGIT (target named for 10A7 in the …); test: FACS, T cell binding (row: Human T cell; column head: mu TIGIT)
How it was run: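 Activated human peripheral blood T cells were stained with each anti-TIGIT antibody and analysed by flow cytometry. Binding was detected with a FITC-labelled anti-human IgG, gated on CD25+CD4+ and CD25+CD8+ cells (LSR-II or LSR-Fortessa, FlowJo). EC50 values come from these titrations.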

B1: 7.4A3.C96S.Q1E (antibody, V domains shown)
VH: EVQLVQSGSDLKKPGASVRVSCKASGYTFTSYPMNWVRQAPGHGLEWMGWINTNTGNPTYVQGFTGRFVFSLDTSVNTAYLQISSLKAEDTAVYFCARTGGHTYDSYAFDVWGQGTMVTVSS
VL: DIQLTQSPTFLSASVGDRVTITCRASQVISSSLAWYQQNPGKAPKLLIYAASTLQSGVPSRFSGSGSGTEFTLTISSLQPEDFVTYYCQHLHGYPSNFGQGTKVEIK
notes: also called 7.4A3.Q1E.C96S
- Kd (human TIGIT protein [1]): 2.97 nM
- Kd [2]: 2.01 nM
- IC50 (HA-tagged TIGIT): 19.3 nM
- IC50 (read off the curve) [3]: ~0.3 nM

B2: 4.1D3 (antibody, V domains shown)
VH: QVQLQQSGPGLVKPSQTLSLTCAISGDSVSSNSAAWNWIRQSPSRGLEWLGKTYYRFKWYSDYAVSVKGRITINPDTSKNQFSLQLNSVTPEDTAVFYCTRESTTYDLLAGPFDYWGQGTLVTVSS
VL: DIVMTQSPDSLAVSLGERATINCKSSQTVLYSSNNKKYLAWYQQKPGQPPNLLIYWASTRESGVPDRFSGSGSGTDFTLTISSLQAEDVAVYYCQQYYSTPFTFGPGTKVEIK
notes: OMT rat-derived human antibody; also called 4.1D3.Q1
- Kd (human TIGIT protein [4]): ≤ 0.019 nM
- Kd [5]: 0.36 nM
- Kd (hTIGIT mutant Y113A): 2.8 nM
- IC50 (read off the curve) [3]: ~0.6 nM

Results, then the binder that gave them:

- Kd (human TIGIT protein [1]): 0.56 nM
- Kd [2]: 3.2 nM
- IC50 (HA-tagged TIGIT): 45 nM
B3: 4.1D3.Q1E (antibody, V domains shown)
VH: B2 VH with Q1E
VL: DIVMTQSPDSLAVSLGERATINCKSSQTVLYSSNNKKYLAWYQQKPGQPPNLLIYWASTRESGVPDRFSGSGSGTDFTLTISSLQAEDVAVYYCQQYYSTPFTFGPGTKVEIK

- Kd (hTIGIT mutant Y113A): 55.5 nM
- EC50 [6]: 0.54 nM
- IC50 [7]: 0.07 nM
- EC50 [8]: 0.63 nM
B4: 10A7 (antibody, V domains shown)
VH: EVQLVESGGGLTQPGKSLKLSCEASGFTFSSFTMHWVRQSPGKGLEWVAFIRSGSGIVFYADAVRGRFTISRDNAKNLLFLQMNDLKSEDTAMYYCARRPLGHNTFDSWGQGTLVTVSS
VL: DIVMTQSPSSLAVSPGEKVTMTCKSSQSLYYSGVKENLLAWYQQKPGQSPKLLIYYASIRFTGVPDRFTGSGSGTDYTLTITSVQAEDMGQYFCQQGINNPLTFGDGTKLEIKR
